{"source": "patent US20190184026A1", "experiment_in_all_cases": "cell-based or functional assay", "key": {"[1]": {"biological_target": "CD3 (on T cells of human PBMCs) (human)"}, "[2]": {"biological_target": "human GLP-1R (human) (UniProt P43220)", "sequence (P43220 24-463)": "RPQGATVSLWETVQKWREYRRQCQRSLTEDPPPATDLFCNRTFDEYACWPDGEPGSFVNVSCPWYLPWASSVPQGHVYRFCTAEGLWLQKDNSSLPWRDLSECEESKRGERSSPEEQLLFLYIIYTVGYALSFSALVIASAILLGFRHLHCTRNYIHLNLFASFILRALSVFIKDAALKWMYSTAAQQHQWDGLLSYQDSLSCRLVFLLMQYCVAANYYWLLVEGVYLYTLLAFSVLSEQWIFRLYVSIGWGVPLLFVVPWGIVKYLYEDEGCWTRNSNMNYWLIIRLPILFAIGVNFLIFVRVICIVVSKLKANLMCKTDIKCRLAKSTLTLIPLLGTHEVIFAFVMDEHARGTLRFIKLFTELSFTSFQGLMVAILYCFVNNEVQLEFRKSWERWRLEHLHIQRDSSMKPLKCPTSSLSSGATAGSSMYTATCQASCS"}, "[3]": {"biological_target": "lactating receptors of the Nb2 cells (rat) (UniProt P05710)", "sequence (P05710 20-610)": "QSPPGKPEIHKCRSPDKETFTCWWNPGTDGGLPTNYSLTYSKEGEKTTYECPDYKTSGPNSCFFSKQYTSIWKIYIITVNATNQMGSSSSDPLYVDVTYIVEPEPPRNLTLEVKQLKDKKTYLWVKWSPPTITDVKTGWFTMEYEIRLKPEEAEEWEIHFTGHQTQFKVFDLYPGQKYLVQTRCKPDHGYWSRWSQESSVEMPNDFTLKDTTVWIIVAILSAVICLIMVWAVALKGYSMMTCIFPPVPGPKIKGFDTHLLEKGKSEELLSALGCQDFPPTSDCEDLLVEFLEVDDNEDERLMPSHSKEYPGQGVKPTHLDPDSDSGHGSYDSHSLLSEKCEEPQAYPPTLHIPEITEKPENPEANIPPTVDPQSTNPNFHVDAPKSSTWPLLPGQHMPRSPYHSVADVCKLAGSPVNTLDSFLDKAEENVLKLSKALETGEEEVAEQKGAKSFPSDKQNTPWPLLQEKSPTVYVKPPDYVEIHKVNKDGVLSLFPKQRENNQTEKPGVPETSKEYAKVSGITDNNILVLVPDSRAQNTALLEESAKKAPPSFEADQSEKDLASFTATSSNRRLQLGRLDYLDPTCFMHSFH"}}, "data": [{"substance": "anti-CD3 monoclonal antibody OKT3", "values": [{"measurement": "EC50 of activation of human PBMCs (CCK-8, absorbance at 492 nM)", "setting": "[1]", "value": 0.015, "unit": "nM"}]}, {"substance": "duraglutide (Eli Lilly, Cat. No. 9301897) (Fc fusion)", "values": [{"measurement": "in vitro activity EC50 (CRE-Luc reporter, CHO-K1 cells with human GLP-1R)", "setting": "[2]", "value": 0.0299, "unit": "nM"}]}, {"substance": "hGH (from UniProt P01241 27-217) (ligand)", "values": [{"measurement": "EC50 (Nb2 cell proliferation, CCK-8)", "setting": "[3]", "value": 0.00694, "unit": "nM"}]}]}
